Experimental data taken from publication PMC4021073, “Breast tumor specific mutation in GATA3 affects physiological mechanisms regulating transcription factor turnover”.

Target: GATA3 DBD wild-type (UniProt P23771-2 261-371)
Assay: EMSA; 0.5-4 uM protein, 30 uM DNA; 28 mM Tris-HCl pH 7.5, 120 mM NaCl, 1 mM DTT, 0.8 mM 2-mercaptoethanol, 4% glycerol, 0.4 uM zinc sulfate; 10 min at 37 C; 10 ul
Conditions: protein: recombinant; (pET-15b hexahistidine fusion); label: none (ethidium bromide stain); blunt (20 bp; one strand printed)

Sequence of GATA3 DBD wild-type (P23771 260-370): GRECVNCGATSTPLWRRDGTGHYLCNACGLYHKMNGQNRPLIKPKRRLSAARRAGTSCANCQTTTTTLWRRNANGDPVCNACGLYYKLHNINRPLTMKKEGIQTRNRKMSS

B1: GATA+ 20 bp (dsDNA)
DNA 1: AATGTCCATCTGATAAGACG
DNA 2: CGTCTTATCAGATGGACATT
**Q.** Does B1 bind?
**A.** Result: binds
